Here are results for one molecule from publication PMC3265611.

The target of this series is T1, Flag-yTdp1 H432N (Saccharomyces cerevisiae, UniProt P38319 1-544, H432N).
T1 sequence: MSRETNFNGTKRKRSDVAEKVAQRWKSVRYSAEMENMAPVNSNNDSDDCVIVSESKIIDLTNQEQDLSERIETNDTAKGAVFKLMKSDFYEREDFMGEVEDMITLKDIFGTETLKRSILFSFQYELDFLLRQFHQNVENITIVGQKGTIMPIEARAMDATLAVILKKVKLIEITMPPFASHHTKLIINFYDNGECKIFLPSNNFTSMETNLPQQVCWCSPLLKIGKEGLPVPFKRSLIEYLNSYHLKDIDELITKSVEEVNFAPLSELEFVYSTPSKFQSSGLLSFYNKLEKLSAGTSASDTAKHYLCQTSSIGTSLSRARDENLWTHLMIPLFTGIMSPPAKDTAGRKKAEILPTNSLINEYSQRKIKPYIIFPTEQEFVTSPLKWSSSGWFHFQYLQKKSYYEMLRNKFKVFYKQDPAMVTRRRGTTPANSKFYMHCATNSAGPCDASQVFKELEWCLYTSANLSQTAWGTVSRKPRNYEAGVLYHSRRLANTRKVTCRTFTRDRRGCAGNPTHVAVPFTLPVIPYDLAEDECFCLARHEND
The series can be described thus: EMSA. For orientation: Mobility shift assays separate free from complexed probe on a gel.

B1: 3'-pY 14-mer substrate (ssDNA)
DNA: GATCTAAAAGACTT
modifications: 3' phosphotyrosine
B1: the binding result is listed as “no binding”.
